According to publication doi:10.1101/2025.01.09.632086 (2025):

Assays:
Assay in all cases: ITC
[1] = biological target: IscU I8K (E. coli, UniProt P0ACD4 1-128, I8K)
[2] = biological target: IscU R15A (E. coli, UniProt P0ACD4 1-128, R15A)
[3] = biological target: IscU Y11A (E. coli, UniProt P0ACD4 1-128, Y11A)

- Kd [1]: 18.2 µM
- Kd [2]: 2.4 µM
- Kd [3]: 2.7 µM
B1: HscA (natural protein)
chain: MALLQISEPGLSAAPHQRRLAAGIDLGTTNSLVATVRSGQAETLADHEGRHLLPSVVHYQQQGHSVGYDARTNAALDTANTISSVKRLMGRSLADIQQRYPHLPYQFQASENGLPMIETAAGLLNPVRVSADILKALAARATEALAGELDGVVITVPAYFDDAQRQGTKDAARLAGLHVLRLLNEPTAAAIAYGLDSGQEGVIAVYDLGGGTFDISILRLSRGVFEVLATGGDSALGGDDFDHLLADYIREQAGIPDRSDNRVQRELLDAAIAAKIALSDADSVTVNVAGWQGEISREQFNELIAPLVKRTLLACRRALKDAGVEADEVLEVVMVGGSTRVPLVRERVGEFFGRPPLTSIDPDKVVAIGAAIQADILVGNKPDSEMLLLDVIPLSLGLETMGGLVEKVIPRNTTIPVARAQDFTTFKDGQTAMSIHVMQGERELVQDCRSLARFALRGIPALPAGGAHIRVTFQVDADGLLSVTAMEKSTGVEASIQVKPSYGLTDSEIASMIKDSMSYAEQDVKARMLAEQKVEAARVLESLHGALAADAALLSAAERQVIDDAAAHLSEVAQGDDVDAIEQAIKNVDKQTQDFAARRMDQSVRRALKGHSVDEV
